The source of these data is the Immune Epitope Database (IEDB).

Assay [1] addresses HLA-A*01:01. The assay is described as follows: IEDB peptide-MHC binding, purified MHC/competitive/fluorescence; filed as Kd, often an IC50 or EC50 that approximates it; ≥ and ≤ were set here for values at or beyond the usual limits of such assays.
Assay [2] has as its target HLA-A*03:01. The description is as above. The settings on record: source organism: Yersinia pestis Nepal516.
Assay [3] concerns the target HLA-A*26:01. The description is as above. The settings on record: source organism: Yersinia pestis Nepal516.
Assay [4] concerns the target HLA-B*58:01. Described as above.
Assay [5] concerns the target HLA-A*01:01. As to the kind of experiment: IEDB peptide-MHC binding, purified MHC/direct/fluorescence; filed as Kd, often an IC50 or EC50 that approximates it; ≥ and ≤ were set here for values at or beyond the usual limits of such assays.
The next assay deals with HLA-A*02:01. The assay is described as above.
The target in assay [6] is HLA-A*03:01. Described as above.
In another assay the target is HLA-A*11:01. The assay is described as above.
The next assay addresses HLA-A*24:03. The description is as above.
The target in assay [7] is HLA-A*26:01. The description is as above.
For assay [8], the target named is HLA-A*30:01. The description is as above.
A further assay has as its target HLA-A*31:01. Described as above.
For a further assay, the target named is HLA-A*69:01. The description is as above.
In the next assay the target is HLA-B*07:02. The assay is described as above.
Another assay addresses HLA-B*08:01. The assay is described as above.
The target of the next assay is HLA-B*27:05. Described as above.
In assay [9] the target is HLA-B*40:01. Described as above.
The target of assay [10] is HLA-B*58:01. The description is as above.
Assay [11] deals with HLA-B*40:01. As to the kind of experiment: IEDB peptide-MHC binding, purified MHC/competitive/fluorescence; filed as Kd, often an IC50 or EC50 that approximates it; ≥ and ≤ were set here for values at or beyond the usual limits of such assays.
Assay [12] concerns the target HLA-B*15:01. As to the kind of experiment: IEDB peptide-MHC binding, purified MHC/direct/fluorescence; filed as Kd, often an IC50 or EC50 that approximates it; ≥ and ≤ were set here for values at or beyond the usual limits of such assays.
For a further assay, the target named is HLA-B*35:01. The description is as above.
The next assay addresses HLA-B*44:02. The assay is described as above.
The target in assay [13] is HLA-B*15:01. As to the kind of experiment: IEDB peptide-MHC binding, purified MHC/competitive/fluorescence; filed as Kd, often an IC50 or EC50 that approximates it; ≥ and ≤ were set here for values at or beyond the usual limits of such assays. The conditions noted are these: source organism: Yersinia pestis Nepal516.
In assay [14] the target is HLA-A*30:01. The description is as above. The settings on record: source organism: Encephalitozoon cuniculi GB-M1.
The next assay concerns the target HLA-B*39:01. The assay is described as above.
The mark [15] stands for this setting: source organism: Yersinia pestis Nepal516.
Setting [16] is: source organism: Vibrio parahaemolyticus.
[17] abbreviates: source organism: Corynebacterium glutamicum.
Where [18] appears, read: source organism: Vibrio cholerae.
Where [19] appears, read: source organism: Salmonella enterica subsp. enterica serovar Typhi.
Where [20] appears, read: source organism: Vibrio vulnificus.
Setting [21] is: source organism: Giardia lamblia ATCC 50803.
Where [22] appears, read: source organism: Escherichia coli 101-1.

Consider RTLDTLALY, for which the Kd (as a rule, the equilibrium constant for the complex coming apart) in the assay with HLA-A*01:01 [1] (setting [15]) was 1.21 µM; in the assay with HLA-A*03:01 [2] it was 0.132 µM; with HLA-A*26:01 [3], 4.5 µM; with HLA-B*58:01 [4] (setting [15]), 0.0084 µM.
In turn, MSLMTGEQF displayed a Kd with HLA-B*58:01 [4] (source organism: Bacillus anthracis str. A0488) of 0.0165 µM. This lies in the double-digit nanomolar range.
In the case of RTHTLRDAK, the Kd with HLA-A*01:01 [5] (setting [16]) is not below 20 µM; with HLA-A*02:01 (setting [16]) it was not below 20 µM; with HLA-A*03:01 [6] (setting [16]) it was 0.93 µM; with HLA-A*11:01 (setting [16]), 0.0535 µM; in the assay with HLA-A*24:03 (setting [16]), 0.472 µM; in the assay with HLA-A*26:01 [7] (setting [16]), not below 20 µM. The Kd is 0.0209 µM in the assay with HLA-A*30:01 [8] (setting [16]); 0.134 µM with HLA-A*31:01 (setting [16]); not below 20 µM with HLA-A*69:01 (setting [16]); not below 20 µM with HLA-B*07:02 (setting [16]); not below 20 µM with HLA-B*08:01 (setting [16]); not below 20 µM with HLA-B*27:05 (setting [16]). Besides, the Kd with HLA-B*40:01 [9] (setting [16]) and with HLA-B*58:01 [10] (setting [16]) was not below 20 µM each time.
For GEMLVATSL, the Kd in the assay with HLA-B*40:01 [11] (setting [15]) is 0.0042 µM.
VETYVLSII: the Kd in the assay with HLA-B*40:01 [11] (source organism: Influenza A virus (A/parakeet/Chiba/1/97(H9N2))) amounted to 0.013 µM.
Consider YELLRYNEY, for which the Kd with HLA-A*01:01 [5] (setting [17]), in the assay with HLA-A*02:01 (setting [17]), with HLA-A*03:01 [6] (setting [17]), with HLA-A*11:01 (setting [17]), in the assay with HLA-A*24:03 (setting [17]) and in the assay with HLA-A*26:01 [7] (setting [17]) was not below 20 µM each time. In addition, the Kd with HLA-A*30:01 [8] (setting [17]) was not below 20 µM; in the assay with HLA-A*31:01 (setting [17]), not below 20 µM; with HLA-A*69:01 (setting [17]) it was not below 20 µM; with HLA-B*08:01 (setting [17]), not below 20 µM; in the assay with HLA-B*15:01 [12] (setting [17]), 0.443 µM; with HLA-B*27:05 (setting [17]) it was not below 20 µM. Further, the Kd was 0.777 µM with HLA-B*35:01 (setting [17]), 14.3 µM in the assay with HLA-B*40:01 [9] (setting [17]) and not below 20 µM with HLA-B*58:01 [10] (setting [17]).
For the sequence IPISGRITA, the Kd in the assay with HLA-A*01:01 [5] (setting [18]), with HLA-A*02:01 (setting [18]), with HLA-A*03:01 [6] (setting [18]), with HLA-A*11:01 (setting [18]), in the assay with HLA-A*24:03 (setting [18]) and with HLA-A*26:01 [7] (setting [18]) was not below 20 µM throughout. The Kd is not below 20 µM with HLA-A*30:01 [8] (setting [18]); not below 20 µM with HLA-A*31:01 (setting [18]); not below 20 µM with HLA-A*69:01 (setting [18]); 0.0244 µM in the assay with HLA-B*07:02 (setting [18]); not below 20 µM in the assay with HLA-B*08:01 (setting [18]); not below 20 µM in the assay with HLA-B*15:01 [12] (setting [18]). For the same sequence, the Kd with HLA-B*27:05 (setting [18]) is not below 20 µM; with HLA-B*35:01 (setting [18]), 0.0172 µM; with HLA-B*40:01 [9] (setting [18]), not below 20 µM; with HLA-B*44:02 (setting [18]) it was not below 20 µM; with HLA-B*58:01 [10] (setting [18]), not below 20 µM.
KTAVVVTRY: the Kd with HLA-A*01:01 [1] (setting [15]) was found to be 0.455 µM; in the assay with HLA-A*03:01 [2], 0.676 µM; with HLA-B*15:01 [13], 0.674 µM; in the assay with HLA-B*58:01 [4] (setting [15]), 0.0362 µM.
With GGRKLKLTK, the Kd in the assay with HLA-A*01:01 [1] (source organism: Encephalitozoon cuniculi GB-M1) was not below 20 µM; with HLA-A*30:01 [14], 0.246 µM.
Turning to HEAEYNLSL, the Kd in the assay with HLA-B*39:01 (setting [19]) turned out to be 0.0019 µM; with HLA-B*40:01 [11] (setting [19]) it was 0.0046 µM.
With KVMALPIPH, the Kd was not below 20 µM with HLA-A*01:01 [5] (setting [20]); not below 20 µM with HLA-A*02:01 (setting [20]); 0.174 µM with HLA-A*03:01 [6] (setting [20]); 0.0247 µM in the assay with HLA-A*11:01 (setting [20]); not below 20 µM with HLA-A*24:03 (setting [20]); not below 20 µM in the assay with HLA-A*26:01 [7] (setting [20]). The Kd with HLA-A*30:01 [8] (setting [20]) is 5.28 µM; with HLA-A*31:01 (setting [20]), 0.136 µM; with HLA-A*69:01 (setting [20]), not below 20 µM; with HLA-B*07:02 (setting [20]), 9.25 µM; with HLA-B*08:01 (setting [20]), not below 20 µM; in the assay with HLA-B*15:01 [12] (setting [20]), 0.452 µM. The Kd is not below 20 µM with HLA-B*27:05 (setting [20]); 0.374 µM with HLA-B*35:01 (setting [20]); not below 20 µM with HLA-B*40:01 [9] (setting [20]); not below 20 µM in the assay with HLA-B*44:02 (setting [20]); not below 20 µM in the assay with HLA-B*58:01 [10] (setting [20]).
For RTRFFCIPK, the Kd is not below 20 µM in the assay with HLA-A*01:01 [5] (setting [21]); 17.4 µM in the assay with HLA-A*02:01 (setting [21]); 0.0273 µM with HLA-A*03:01 [6] (setting [21]); 0.0209 µM with HLA-A*11:01 (setting [21]); not below 20 µM with HLA-A*24:03 (setting [21]); not below 20 µM with HLA-A*26:01 [7] (setting [21]). For the same sequence, the Kd with HLA-A*30:01 [8] (setting [21]) was 0.00137 µM; with HLA-A*31:01 (setting [21]), 0.0182 µM; with HLA-A*69:01 (setting [21]), not below 20 µM; in the assay with HLA-B*07:02 (setting [21]), not below 20 µM; with HLA-B*08:01 (setting [21]) it was not below 20 µM; with HLA-B*15:01 [12] (setting [21]), not below 10 µM. Further, the Kd with HLA-B*27:05 (setting [21]) is 0.321 µM; with HLA-B*40:01 [9] (setting [21]), not below 20 µM; in the assay with HLA-B*44:02 (setting [21]) it was not below 20 µM; with HLA-B*58:01 [10] (setting [21]), not below 20 µM.
In the case of AIPYFYKGK, the Kd with HLA-A*01:01 [5] (setting [21]) is not below 20 µM; in the assay with HLA-A*02:01 (setting [21]), not below 20 µM; with HLA-A*03:01 [6] (setting [21]) it was not below 20 µM; with HLA-A*11:01 (setting [21]), 0.308 µM; in the assay with HLA-A*24:03 (setting [21]), 13 µM; in the assay with HLA-A*26:01 [7] (setting [21]), not below 20 µM. Also, the Kd is 12.5 µM with HLA-A*30:01 [8] (setting [21]); not below 20 µM in the assay with HLA-A*69:01 (setting [21]); not below 20 µM in the assay with HLA-B*07:02 (setting [21]); not below 20 µM with HLA-B*08:01 (setting [21]); not below 20 µM with HLA-B*15:01 [12] (setting [21]); not below 20 µM with HLA-B*27:05 (setting [21]). The Kd in the assay with HLA-B*40:01 [9] (setting [21]), with HLA-B*44:02 (setting [21]) and with HLA-B*58:01 [10] (setting [21]) was not below 20 µM throughout.
For the sequence IASLTGWQW, the Kd with HLA-B*15:01 [12] (source organism: Mycobacterium tuberculosis str. Haarlem) is 16 µM; in the assay with HLA-B*58:01 [4] (source organism: Mycobacterium tuberculosis variant bovis BCG str. Pasteur 1173P2), 0.0006 µM.
For the sequence FEANALSVI, the results for the Kd with HLA-B*39:01 (setting [22]) and with HLA-B*40:01 [11] (setting [22]) were 3.82 µM and 0.0097 µM, respectively.
GEVRGYLVK registered a Kd with HLA-B*40:01 [11] (source organism: Escherichia coli O139:H28 str. E24377A) not below 20 µM.
Turning to IELITTIGF, the dissociation constant Kd with HLA-B*40:01 [11] (source organism: Bacillus cereus 03BB102) was found to be 0.0532 µM.
